Target: the molecule itself
Test: SEC

B1: PCD αβ dimer (protomer of the protocatechuate 3,4-dioxygenase holoenzyme complex) from Pseudomonas putida (complex)
chain 1: MPIELLPETPSQTAGPYVHIGLALEAAGNPTRDQEIWNRLAKPDAPGEHILLLGQVYDGNGHLVRDSFLEVWQADANGEYQDAYNLENAFNSFGRTATTFDAGEWTLHTVKPGVVNNAAGVPMAPHINISLFARGINIHLHTRLYFDDEAQANAKCPVLNLIEQPQRRETLIAKRCEVDGKTAYRFDIRIQGEGETVFFDF
chain 2: MPAQDNSRFVIRDRNWHPKALTPDYKTSIARSPRQALVSIPQSISETTGPNFSHLGFGAHDHDLLLNFNNGGLPIGERIIVAGRVVDQYGKPVPNTLVEMWQANAGGRYRHKNDRYLAPLDPNFGGVGRCLTDSDGYYSFRTIKPGPYPWRNGPNDWRPAHIHFGISGPSIATKLITQLYFEGDPLIPMCPIVKSIANPEAVQQLIAKLDMNNANPMDCLAYRFDIVLRGQRKTHFENC
- binding result: binds

— publication PMC6076860 (Analytical biochemistry, 2018)
